The source of these data is paper PMC8395514, “Characterization of Class V DyP-Type Peroxidase SaDyP1 from Streptomyces avermitilis and Evaluation of SaDyPs Expression in Mycelium” (International Journal of Molecular Sciences, 2021).

One data set addresses T1, SaDyP1 (Streptomyces avermitilis, UniProt Q82QF8).
T1 construct: gene SAVERM_549
T1 sequence (Q82QF8 1-442): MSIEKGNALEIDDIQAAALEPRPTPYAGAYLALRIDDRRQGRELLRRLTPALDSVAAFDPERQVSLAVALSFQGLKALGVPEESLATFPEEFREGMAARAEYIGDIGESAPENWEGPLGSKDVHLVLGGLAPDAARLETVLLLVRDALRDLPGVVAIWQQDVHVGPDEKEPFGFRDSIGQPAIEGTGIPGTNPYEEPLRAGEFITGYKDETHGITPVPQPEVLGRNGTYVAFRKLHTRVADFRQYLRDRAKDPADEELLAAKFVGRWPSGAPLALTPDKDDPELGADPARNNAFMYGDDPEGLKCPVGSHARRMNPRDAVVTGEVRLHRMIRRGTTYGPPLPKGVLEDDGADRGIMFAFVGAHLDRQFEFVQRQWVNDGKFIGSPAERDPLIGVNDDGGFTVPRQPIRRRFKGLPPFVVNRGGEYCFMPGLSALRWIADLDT
Briefly: initial-rate peroxidase assay, absorbance […] nm, Haldane fit. The class given is biochemical. Conditions: 0.20 mM H2O2, 25 mM citrate, pH 4.0 in Table 3 and methods (pH 4.5 in Figure 5 legend), substrate inhibition model; substrate inhibition constant (Haldane).

Substrate in data set [1]: COc1cccc(OC)c1O
Briefly: purified protein. The format is biochemical, Streptomyces avermitilis. The settings on record: 0.20 mM H2O2, 25 mM citrate, pH 4.0.

Substrate in data set [2]: CCn1c(=NN=c2sc3cc(S(=O)(=O)O)ccc3n2CC)sc2cc(S(=O)(=O)O)ccc21
Description: purified protein. The format is biochemical, Streptomyces avermitilis. The settings on record: 0.20 mM H2O2, 25 mM citrate, pH 4.0 in Table 3 and methods (pH 4.5 in Figure 5 legend), substrate inhibition model.

As to `CCn1c(=NN=c2sc3cc(S(=O)(=O)O)ccc3n2CC)sc2cc(S(=O)(=O)O)ccc21` [ABTS, 2,2′-azinobis [3-ethylbenzothiazoline-6-sulfonic acid]], the “Ki” value at SaDyP1 was 13 mM.

B1: SaDyP1 (Streptomyces avermitilis MA-4680 = NBRC 14893) (protein)
chain: MSIEKGNALEIDDIQAAALEPRPTPYAGAYLALRIDDRRQGRELLRRLTPALDSVAAFDPERQVSLAVALSFQGLKALGVPEESLATFPEEFREGMAARAEYIGDIGESAPENWEGPLGSKDVHLVLGGLAPDAARLETVLLLVRDALRDLPGVVAIWQQDVHVGPDEKEPFGFRDSIGQPAIEGTGIPGTNPYEEPLRAGEFITGYKDETHGITPVPQPEVLGRNGTYVAFRKLHTRVADFRQYLRDRAKDPADEELLAAKFVGRWPSGAPLALTPDKDDPELGADPARNNAFMYGDDPEGLKCPVGSHARRMNPRDAVVTGEVRLHRMIRRGTTYGPPLPKGVLEDDGADRGIMFAFVGAHLDRQFEFVQRQWVNDGKFIGSPAERDPLIGVNDDGGFTVPRQPIRRRFKGLPPFVVNRGGEYCFMPGLSALRWIADLDT
As for B1, in “purified protein [1]”, the Km is 0.61 mM, the kcat is 0.23 s⁻¹ and the kcat/Km was 380 M⁻¹ s⁻¹. In addition, in “purified protein [2]”, the Km is 1.2 mM, the kcat stood at 2.8 s⁻¹ and the kcat/Km is 2400 M⁻¹ s⁻¹.
